Reference: patent US20160333110A1 (CHIOME BIOSCIENCE, published 2016)

T1: human TROP-2 (hTROP-2) endogenously expressed on the cell surface of human cancer cell lines (human, UniProt P09758 27-323)
T1 construct: also called TACSTD2; PK-59 cells
T1 sequence: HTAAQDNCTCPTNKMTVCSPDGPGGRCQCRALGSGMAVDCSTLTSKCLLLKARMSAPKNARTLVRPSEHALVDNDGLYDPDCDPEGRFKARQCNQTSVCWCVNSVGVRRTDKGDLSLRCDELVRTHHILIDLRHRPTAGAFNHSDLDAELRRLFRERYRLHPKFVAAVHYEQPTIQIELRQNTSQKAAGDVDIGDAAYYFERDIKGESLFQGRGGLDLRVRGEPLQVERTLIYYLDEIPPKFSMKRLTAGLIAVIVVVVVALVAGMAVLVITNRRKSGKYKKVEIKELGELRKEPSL

T2: mouse TROP-2 protein transiently expressed in CHO-K1 cells (mouse, UniProt Q8BGV3 25-317)
T2 construct: whole, on cells
T2 sequence (looked up): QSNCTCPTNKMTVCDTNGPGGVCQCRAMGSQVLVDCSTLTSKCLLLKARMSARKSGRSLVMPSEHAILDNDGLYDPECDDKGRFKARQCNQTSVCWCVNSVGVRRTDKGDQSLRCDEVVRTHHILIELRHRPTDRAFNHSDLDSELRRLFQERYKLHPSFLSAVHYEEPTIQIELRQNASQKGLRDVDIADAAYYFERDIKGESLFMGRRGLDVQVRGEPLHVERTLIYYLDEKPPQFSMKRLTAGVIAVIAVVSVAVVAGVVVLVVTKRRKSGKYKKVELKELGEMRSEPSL

T3: human TROP-1/EpCAM protein transiently expressed in CHO-K1 cells (human, UniProt P16422 24-314)
T3 construct: whole, on cells; also called human EpCAM/TROP-1; hEpCAM; not shown: C-terminal myc/His tag from pcDNA3.1-hEpCAM-myc/His
T3 sequence (looked up): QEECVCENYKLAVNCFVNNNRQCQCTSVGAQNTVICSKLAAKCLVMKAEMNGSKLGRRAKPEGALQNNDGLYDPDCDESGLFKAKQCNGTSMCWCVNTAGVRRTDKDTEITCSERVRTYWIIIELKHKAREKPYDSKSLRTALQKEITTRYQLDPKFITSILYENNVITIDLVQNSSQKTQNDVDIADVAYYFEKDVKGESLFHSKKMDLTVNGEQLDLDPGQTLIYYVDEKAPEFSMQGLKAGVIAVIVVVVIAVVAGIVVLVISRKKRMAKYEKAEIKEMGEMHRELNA

T4: recombinant hTACSTD2-Fc-His protein (Creative BioMart) (human, UniProt P09758 27-274, limits assumed)
T4 construct: bought protein; also called hTROP-2 (low-density antigen-coated ELISA); not shown: Fc part of the bought fusion protein; not described; His tag
T4 sequence: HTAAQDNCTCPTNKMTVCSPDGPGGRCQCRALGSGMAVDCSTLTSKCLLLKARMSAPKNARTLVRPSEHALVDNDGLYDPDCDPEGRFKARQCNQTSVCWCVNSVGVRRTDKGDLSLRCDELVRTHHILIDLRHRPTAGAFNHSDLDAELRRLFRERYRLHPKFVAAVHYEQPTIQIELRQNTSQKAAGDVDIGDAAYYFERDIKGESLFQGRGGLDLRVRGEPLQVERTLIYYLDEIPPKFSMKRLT

T5: recombinant protein of the hTROP-2 extracellular region (human, UniProt P09758 27-263)
T5 construct: produced with baculovirus, purified on Ni Sepharose; also called hTROP-2 EC; hTROP-2-EC-His; not shown: C-terminal myc-His tag from pcDNA4/myc-His A
T5 sequence: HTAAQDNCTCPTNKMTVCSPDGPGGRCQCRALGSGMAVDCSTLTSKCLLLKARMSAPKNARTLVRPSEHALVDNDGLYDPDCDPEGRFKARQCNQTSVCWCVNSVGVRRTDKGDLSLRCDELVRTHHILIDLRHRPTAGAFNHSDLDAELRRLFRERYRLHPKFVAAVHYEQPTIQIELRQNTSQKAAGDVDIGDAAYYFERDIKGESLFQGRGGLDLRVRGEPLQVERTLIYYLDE

B1: anti-hTROP-2 monoclonal antibody clone K5-116-2-1 (antibody, mouse IgG2a, V domains shown)
VH: QVQLQQPGAELVRPGASVKLSCKASGYTFTSYWITWVKQRPGQGLEWIGNIYPSDSYTNYNQKFRDKATLTVDKSSSTAYMQLSSPTSEDSAVYYCSALFDYWGQGTTLTVSS
VL: DILLTQSPAILSVSPGERVSFSCRASQSIGTSIHWYQQRTNGSPRLLIKYASESISGIPSRFSGSGSGTDFILSINSVESEDIADYYCQQSNSWPFTFGSGTKLEIK
notes: mouse IgG2a, hybridoma FERM BP-11253
B2: anti-hTROP-2 monoclonal antibody clone K5-107 (antibody, mouse IgG1, V domains shown)
VH: QVQLQQPGSELVRPGASVKLSCKASGYTFTSYWMHWVKQRHGQGLEWIGNIYPGGGYTNYDEKFKSKGTLTVDTSSSTAYMHLSSLTSEDSAVYYCTRSSVFDYWGQGTTLTVSS
VL: DILLTQSPAILSVSPGERVSFSCRASQNIGTSIHWFQQRTNGSPRLLIKYASESISGIPSRFSGSGSGTDFTLSINSVESEDIADYYCQQSNSWPFTFGSGTKLEIK
notes: mouse IgG1, hybridoma FERM BP-11252
B3: humanized K5-70 antibody (HuK5-70) (antibody, V domains shown)
VH: QVQLVQSGAEVKKPGASVKVSCKASGYTFTIYWINWVRQAPGQRLEWIGNIYPSDSYTNYNQKFKDKATLTVDTSASTAYMELSSLRSEDTAVYYCTRTSMADYWGQGTLVTVSS
VL: EIVLTQSPATLSLSPGERATLSCRASQSIGTSIHWYQQKPGQAPRLLIKYASESISGIPARFSGSGSGTDFTLTISSLEPEDFAVYYCQQSNSWPFTFGQGTKVEIK
notes: human IgG1 / human kappa constant regions from the vectors pFUSE-CHIg-hG1 and pFUSE2-CLIg-hk; also called HuK5-70 antibody
B4: humanized T6-16 antibody HuT6-16-1 (antibody, V domains shown)
VH: QVQLVQSGAEVKKPGASVKVSCKASGYTFTDYNMHWVRQAPGQGLEWIGYIYPYNGGTGYNQRFKSRATMTVDKSTSTAYMELRSLRSDDTAVYYCAREDYGSSPSYAMDYWGQGTMVTVSS
VL: DIVMTQSPLSLPVTPGEPASISCRSSQSLVHGNGNTYLHWYLQKPGQSPQLLIYKVSNRFSGVPDRFSGSGSGTDFTLKISRVEAEDVGVYYCSQTTHVPTFGGGTKVEIK
notes: HuT6-16 VH1 with HuT6-16 VL; also called HuT6-16-1 antibody
B5: humanized T6-16 antibody HuT6-16-2 (antibody, V domains shown)
VH: QVQLVQSGAEVKKPGASVKVSCKASGYTFTDYNMHWVRQAPGQGLEWIGYIYPYNGGTGYNQRFKSRATMTVDTSTSTAYMELRSLRSDDTAVYYCAREDYGSSPSYAMDYWGQGTMVTVSS
VL: DIVMTQSPLSLPVTPGEPASISCRSSQSLVHGNGNTYLHWYLQKPGQSPQLLIYKVSNRFSGVPDRFSGSGSGTDFTLKISRVEAEDVGVYYCSQTTHVPTFGGGTKVEIK
notes: HuT6-16 VH2 with HuT6-16 VL; also called HuT6-16-2 antibody

Key:
[1] = molecular target: T1, human TROP-2 (hTROP-2) endogenously …; experiment: FACS on PK-59 cells, 0.1 µg antibody
Method: (§1) Cancer cells were removed from a culture dish by a trypsin treatment, and a cell suspension was then prepared (cell density: 2×10⁶ cells/mL). An anti-hTROP-2 monoclonal antibody (0.1 μg) was added to 100 μL of the cell suspension, and they were then reacted at 4° C. for 20 minutes. The reaction solution was washed with PBS, and it was then reacted with PE-labeled anti-mouse IgG (BD Biosciences Pharmingen) (0.1 μg) (at 4° C. for 30 minutes). Thereafter, the resultant was analyzed by FACSCalibur (Becton, Dickinson and Company).
(§2) Subsequently, the reactivity of the generated anti-hTROP-2 monoclonal antibodies with human cancer cell lines (in which an hTROP-2 protein was endogenously expressed on the cell surface) was examined by FACS analysis.

[2] = molecular target: T1, human TROP-2 (hTROP-2) endogenously …; experiment: FACS on BxPC-3 cells, 0.1 µg antibody
Method: as §1, §2

[3] = molecular target: T2, mouse TROP-2 protein transiently …; experiment: FACS on CHO-K1 cells transiently expressing mouse TROP-2
Excerpt: (§3) Specifically, each of an expression vector (mouse TROP-2-pcDNA3.1(+), furnished by the Institute of Molecular and Cellular Biosciences, the University of Tokyo) comprising the full-length cDNA of a mouse TROP-2 gene (GenBank accession No. NM_020047, Y08830), and an expression vector (pcDNA3.1-hEpCAM-myc/His) comprising the full-length cDNA of a human TROP-1/EpCAM gene (GenBank accession No. NM_002354), was transiently introduced into CHO-K1 cells, using Lipofectamine2000 reagent (Invitrogen). Thereafter, 24 to 48 hours later, the cells were removed from a culture dish by treating them with trypsin, and a cell suspension was then prepared. The thus prepared cell suspension was successively reacted with the produced anti-hTROP-2 monoclonal antibody (0.1 μg) and with PE-labeled anti-mouse IgG, and it was then analyzed by FACSCalibur.

[4] = molecular target: T3, human TROP-1/EpCAM protein transiently …; experiment: FACS on CHO-K1 cells transiently expressing human EpCAM/TROP-1
Excerpt: as §3

[5] = molecular target: T4, recombinant hTACSTD2-Fc-His protein …; experiment: low-density antigen-coated ELISA, plate coated with 0.1 µg/mL hTACSTD2-Fc-His
Method: Furthermore, antigen affinity was also examined by an ELISA method. ELISA was carried out using an ELISA plate which was coated with the recombinant protein of the hTROP-2 extracellular region as described in Example 3. […] Thereafter, the resultant was washed with a washing buffer (PBS containing 0.05% Tween 20), and a blocking buffer (PBS containing 2% skim milk and 0.05% Tween 20) was then added thereto (200 μl/well) to block it (at room temperature for 1 hour). The resultant was washed with a washing buffer. […] The obtained dilution samples were each added in an amount of 50 μl/well to the above-described ELISA plate (at room temperature for 2 hours). […] After the mixture had been washed with a washing buffer, a TMB (3,3′,5,5′-tetramethylbenzidine: SIGMA) substrate solution was added (50 μl/well) to the resultant to carry out a color reaction. Then, 1 M sulfuric acid (25 μl/well) was added to the reaction product to terminate the reaction. Using Microplate reader Model 550 (BioRad), an absorbance at 450 nm was measured with an absorbance at 655 nm used as a reference.

[6] = molecular target: T5, recombinant protein of the hTROP-2 …; experiment: antigen-coated ELISA, plate coated with 0.5 µg/ml hTROP-2 extracellular region
Method: Furthermore, antigen affinity was also examined by an ELISA method. ELISA was carried out using an ELISA plate which was coated with the recombinant protein of the hTROP-2 extracellular region as described in Example 3. Specifically, a 96-well plate (BD FALCON) was coated with a 50 μl/well recombinant protein of a hTROP-2 extracellular region that had been diluted with PBS to 0.5 μg/ml (at 4° C. overnight). Thereafter, the resultant was washed with a washing buffer (PBS containing 0.05% Tween 20), and a blocking buffer (PBS containing 2% skim milk and 0.05% Tween 20) was then added thereto (200 μl/well) to block it (at room temperature for 1 hour). The resultant was washed with a washing buffer. […] The obtained dilution samples were each added in an amount of 50 μl/well to the above-described ELISA plate (at room temperature for 2 hours). […] After the mixture had been washed with a washing buffer, a TMB (3,3′,5,5′-tetramethylbenzidine: SIGMA) substrate solution was added (50 μl/well) to the resultant to carry out a color reaction. Then, 1 M sulfuric acid (25 μl/well) was added to the reaction product to terminate the reaction. Using Microplate reader Model 550 (BioRad), an absorbance at 450 nm was measured with an absorbance at 655 nm used as a reference.

[7] = molecular target: T5, recombinant protein of the hTROP-2 …; experiment: monovalent ELISA: antibody captured by anti-human IgG Fc, hTROP-2 EC titrated in solution, detected with anti-His
Method: Thereafter, coating was carried out at 4° C. overnight. Thereafter, the reaction product was washed with a washing buffer (PBS containing 0.05% Tween 20), and a blocking buffer (PBS containing 2% skim milk and 0.05% Tween 20) was then added thereto (200 μL/well) to block it (at room temperature for 1 hour). The resultant was washed with a washing buffer. […] The mixture was left at rest at room temperature for 1 hour, and the reaction product was then washed with a washing buffer. The recombinant protein of the hTROP-2 extracellular region described in Example 3 (hTROP-2 EC) was diluted with an ELISA buffer to prepare samples with a concentration range from 5 μg/mL to a series of three-fold dilutions (10 samples). The thus obtained sample was added in each amount of 50 μL/well to the plate. The mixture was left at rest at room temperature for 1 hour, and the reaction product was then washed with a washing buffer. […] The obtained mixture was left at rest at room temperature for 1 hour, and it was then washed with a washing buffer. […] The obtained mixture was left at rest at room temperature for 1 hour, and it was then washed with a washing buffer. […] Using Microplate reader Model 550 (BioRad), an absorbance at 450 nm was measured with an absorbance at 655 nm used as a reference.

[8] = molecular target: T4, recombinant hTACSTD2-Fc-His protein …; experiment: low-density antigen-coated ELISA, plate coated with 0.1 µg/mL hTACSTD2-Fc-His, purified antibodies; HuK5-70 (humanized antibody); low-density ELISA, 0.1 µg/mL hTROP-2 coat

Row | binding result [3] | binding result [4] | EC50 [5] | EC50 [6] | further results | Binder
1 | no binding (tested: 0.1 µg antibody) | no binding (tested: 0.1 µg antibody) | – | – | mean fluorescence intensity, times that with PE-labeled anti-mouse IgG alone [1]: 122 times; mean fluorescence intensity, times that with PE-labeled anti-mouse IgG alone [2]: 121 times | B1
2 | no binding (tested: 0.1 µg antibody) | no binding (tested: 0.1 µg antibody) | – | – | – | B2
3 | – | – | 0.222 µg/mL | 0.022 µg/mL | EC50 relative to that of the K5-70 antibody [5]: ~20 times; EC50 [7]: 0.006 µg/mL; EC50 [8]: 0.0334 µg/mL | B3
4 | – | – | – | 0.027 µg/mL | – | B4
5 | – | – | 0.049 µg/mL | 0.027 µg/mL | – | B5
